± gives the standard deviation.
Experiment: collision cross section of modified peptide (TIMS, N2, iRT-aligned); higher = larger / more extended gas-phase ion
Method in brief: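 Collision cross section was derived from the Mason-Schamp equation. Each value averages 1–3 technical replicates of the most abundant feature per charge state, measured on a timsTOF Pro/HT in dda-PASEF mode (nitrogen, ~2.4 mbar) after a 120-min nanoflow C18 gradient at 60 °C. Synthetic peptide pools (~100 fmol/µL in 2% acetonitrile/0.1% formic acid, iRT standard spiked 1:40) were identified with MaxQuant, and 1/K0 was calibrated with three reference ions and aligned run-wise to the median iRT peptide deviation.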

[1] = charge state: 2, modification: Crotonyl
[2] = charge state: 2, modification: Butyryl
[3] = charge state: 2, modification: Dimethyl (K)
[4] = charge state: 2, modification: Hydroxyproline
[5] = charge state: 3, modification: Hydroxyproline
[6] = charge state: 2, modification: Citrullination (R)
[7] = charge state: 2, modification: hydroxyisobutyryl
[8] = charge state: 3, modification: Trimethyl (K)
[9] = charge state: 2, modification: Methyl (K)
[10] = charge state: 3, modification: Methyl (K)
[11] = charge state: 2, modification: Succinyl
[12] = charge state: 3, modification: Succinyl

VDIDAPDVSIEGPDAKLK [_VDIDAPDVSIEGPDAK(Crotonyl)LK_]
collision cross section [1]: 471.19 ± 1.1 Å²

SGFGKFER [_SGFGK(Butyryl)FER_]
collision cross section [2]: 337.09 ± 1.2 Å²

LTEKELAEAASK [_LTEK(Dimethyl (K))ELAEAASK_]
collision cross section [3]: 397.3 ± 0.55 Å²
collision cross section (charge state: 3, modification: Dimethyl (K)): 456.37 ± 5.1 Å²

LLFSNTAAQKLR [_LLFSNTAAQK(Acetyl (K))LR_]
collision cross section (charge state: 2, modification: Acetyl (K)): 400.1 ± 2.9 Å²
collision cross section (charge state: 3, modification: Acetyl (K)): 478.35 ± 0.83 Å²

HGGSGGRGVSVSSAR [_HGGSGGR(Methyl (R))GVSVSSAR_]
collision cross section (charge state: 3, modification: Methyl (R)): 477.29 ± 1.5 Å²

GDKGDAGEPGR [_GDKGDAGEP(Hydroxyproline)GR_]
collision cross section [4]: 331.51 ± 0.55 Å²
collision cross section [5]: 414.61 ± 0.42 Å²

GGGGGGGGGAPRGR [_GGGGGGGGGAPR(Citrullination (R))GR_]
collision cross section [6]: 333.41 ± 0.64 Å²
collision cross section (charge state: 3, modification: Citrullination (R)): 420.82 ± 2.9 Å²

VGVEVPDVNIEGPEGKLK [_VGVEVPDVNIEGPEGK(Malonyl)LK_]
collision cross section (charge state: 2, modification: Malonyl): 458.25 ± 0.64 Å²

GTVPDDAVEALADSLGKK [_GTVPDDAVEALADSLGK(Formyl)K_]
collision cross section (charge state: 2, modification: Formyl): 449.34 ± 1.3 Å²
collision cross section (charge state: 3, modification: Formyl): 523.67 ± 1.8 Å²

SGFGKFER [_SGFGK(hydroxyisobutyryl)FER_]
collision cross section [7]: 340.58 ± 1.9 Å²

ISSNFSSIIAEKLR [_ISSNFSSIIAEK(Trimethyl (K))LR_]
collision cross section [8]: 499.26 ± 8.7 Å²

PSVSTKLISK [_PSVSTK(Butyryl)LISK_]
collision cross section [2]: 357.77 ± 1.8 Å²

TTEETSKPK [_TTEETSK(Methyl (K))PK_]
collision cross section [9]: 342.29 ± 0.79 Å²
collision cross section [10]: 431.66 Å²

YEQEHAAIQDKLFQVAK [_YEQEHAAIQDK(Methyl (K))LFQVAK_]
collision cross section [10]: 557.9 ± 0.6 Å²

YTAILNQIPSHSSSIR [_YTAILNQIP(Hydroxyproline)SHSSSIR_]
collision cross section [4]: 473.92 ± 0.82 Å²
collision cross section [5]: 518.79 ± 6.1 Å²

TSAVSSQANSQPPVQVSVK [_T(HexNAc (ST))SAVSSQANSQPPVQVSVK_]
collision cross section (charge state: 3, modification: HexNAc (ST)): 513.92 Å²

GSELQNYFTK [_GSELQNY(Phospho (Y))FTK_]
collision cross section (charge state: 2, modification: Phospho (Y)): 373.39 ± 0.68 Å²

VDVEVPDVSLEGPEGKLK [_VDVEVPDVSLEGPEGK(Succinyl)LK_]
collision cross section [11]: 456.12 ± 0.34 Å²
collision cross section [12]: 501.13 ± 1.5 Å²

DYQPGITFIVVQK [_DYQP(Hydroxyproline)GITFIVVQK_]
collision cross section [4]: 402.94 ± 0.79 Å²
collision cross section [5]: 487.91 Å²

VVDLLAPYAK [_VVDLLAPY(Nitro (Y))AK_]
collision cross section (charge state: 2, modification: Nitro (Y)): 371.07 ± 0.55 Å²

AGPNASIISLKSDK [_AGPNASIISLK(Gluratylation)SDK_]
collision cross section (charge state: 2, modification: Glutarylation): 416.83 ± 0.49 Å²

VRLQTTLR [_VR(Citrullination (R))LQTTLR_]
collision cross section [6]: 344.05 ± 1.2 Å²

IQQELQTAKK [_IQQELQTAK(Methyl (K))K_]
collision cross section [9]: 376.86 ± 3.5 Å²
collision cross section [10]: 430.18 ± 6.1 Å²

SPSDSGYSYETIGKTTK [_SPSDSGYSYETIGK(Methyl (K))TTK_]
collision cross section [9]: 466.86 ± 1.2 Å²
collision cross section [10]: 512.24 ± 3.8 Å²

LQDVSGQLSSSKK [_LQDVSGQLSSSK(Methyl (K))K_]
collision cross section [9]: 404.82 ± 1.9 Å²
collision cross section [10]: 465.49 ± 8.7 Å²

GGRGTPGK [_GGRGTP(Hydroxyproline)GK_]
collision cross section [4]: 291.37 ± 3.4 Å²

IVSGKDYNVTANSK [_IVSGK(hydroxyisobutyryl)DYNVTANSK_]
collision cross section [7]: 417.55 ± 0.55 Å²
collision cross section (charge state: 3, modification: hydroxyisobutyryl): 466.6 ± 0.46 Å²

DYSAPVNFISAGLKK [_DYSAPVNFISAGLK(Succinyl)K_]
collision cross section [11]: 438.82 ± 0.97 Å²
collision cross section [12]: 533.85 ± 1.6 Å²

SLFFGGKGAPLQR [_SLFFGGK(GlyGly (K))GAPLQR_]
collision cross section (charge state: 2, modification: GlyGly (K)): 414.92 ± 0.35 Å²
collision cross section (charge state: 3, modification: GlyGly (K)): 468.6 ± 1.1 Å²

PSVSTKLISK [_PSVSTK(Dimethyl (K))LISK_]
collision cross section [3]: 362.9 ± 0.28 Å²

AGPNASIISLKSDK [_AGPNASIISLK(Crotonyl)SDK_]
collision cross section [1]: 412.97 ± 0.55 Å²

GETASKLQSEISR [_GETASK(Butyryl)LQSEISR_]
collision cross section [2]: 390.84 ± 0.85 Å²
collision cross section (charge state: 3, modification: Butyryl): 467.14 ± 2.9 Å²

ANEKTESSSAQQVAVSR [_ANEK(Trimethyl (K))TESSSAQQVAVSR_]
collision cross section [8]: 495.46 ± 1.6 Å²

From the supplement of paper PMC10598134
